Measured values published in PMC10984984, “Loss-of-function mutation in PRMT9 causes abnormal synapse development by dysregulation of RNA alternative splicing”.

T1: SF3B2 peptide R508me0 (unmodified) (UniProt Q13435)
T1 chain: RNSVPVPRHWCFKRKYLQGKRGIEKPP


Biological target: T1, SF3B2 peptide R508me0 (unmodified)
Assay: EMSA; R508me0; RNA 1 uM, peptide 1.4-140 uM; 20 mM Tris-HCl pH 8.0, 150 mM NaCl, 1.5 mM MgCl2, 0.5 mM EDTA, 100 U/mL RNasin, room temperature, 20 min; 6% native gel in 0.5x TBE
Conditions: label: 5' 6-FAM

Row | Binder | binding result
1 | CAUAGAAAAAAGUUAAGUUAA (ssRNA) [Stag2 upstream probe A (nonconsensus anchoring site)] | binds
2 | UAAUAGUCAUGCCUUGGUUCA (ssRNA) [Stag2 downstream probe B (consensus anchoring site)] | binds
